Changes are numbered by the printed parent chain. Marks after values point to notes of the source that are not given here.
B1: mFAP1: SEQ ID NO:33; variant of b11L5F.2 (protein)
chain: MSRAAQLLPGTWQTTMTNEDGQTSQGQMHFQPRSPYTLDVVAQGTISDGRPISGYGKVTVKTDDTLDVDITYPSLGNIKVQGQVTMDSPTQFKFDATTSDGKKLTGTLQRQE
modifications: (1)..(1) optionally absent
B2: b32: SEQ ID NO:12; monomeric design, activates DFHBI fluorescence (protein)
chain: MGQEVAQVLPGDWQVHMTNEDGQTSTGTVTFQPRSPYTFDVKFKGTMSDGRPITGKGKMTMKTPDTMDIDVTYSDGKKVTGKVTMKSPTQLDWDLTTSDGSKVTGTSHRQE
modifications: (1)..(1) optionally absent
B3: b11L5F.2: SEQ ID NO:27; second round design from b11L5F.1 (protein)
chain: MNRAAQLLPGTWQVTMTNEDGQTSQGQMHFQPRSPYTLDIVAQGTISDGRPISGYGKVTVKTPDTMHVNITYPSLGNIKVQGQITLDSPTQFTWNSTTSDGKKLTGTLQRQE
modifications: (1)..(1) optionally absent
B4: b11: SEQ ID NO:4; monomeric design with disulfide bond, activates DFHBI fluorescence (protein)
chain: MCRAASLLPGTWQVTMTNEDGQTSQGQMHFQPRSPYTLDVKAQGTMSDGRPIQGKGKVTCKTPDTMDVDITYSDGKQVQGQVTLDSPTQFKFDVTTSDGSKVTGTLQRQE
modifications: (1)..(1) optionally absent
B5: b11L5F: SEQ ID NO:25; b11 with a 5-residue fifth turn (protein)
chain: MCRAASLLPGTWQVTMTNEDGQTSQGQMHFQPRSPYTLDVKAQGTISDGRPISGKGKVTCKTPDTMDVDITYPSLGNMKVQGQVTLDSPTQFKFDVTTSDGSKVTGTLQRQE
modifications: (1)..(1) optionally absent
B6: b11L5F.1: SEQ ID NO:26; b11L5F triple mutant 83I_95A_103L without disulfide (protein)
chain: B5 chain with C2S, K41V, K55Y, C60V, V84I, V96A, V104L
modifications: (1)..(1) optionally absent
B7: mFAP2.3: SEQ ID NO:58 (protein)
chain: MSRAAQLLPGTWQVTMTNEDGQTSQGQMHFQPRSPYTMDVVAQGTISDGRPIVGYGKVTVKTPDTLDVDITYPSLGNIKAQGQITMDSPTQFKFDATTKGENDFHGRLTGTLQRQE
modifications: (1)..(1) optionally absent
B8: mFAP2.4: SEQ ID NO:59 (protein)
chain: B7 chain with V40I, V58A, E101A, N102G, D103N, H105T
modifications: (1)..(1) optionally absent
B9: mFAP2.5: SEQ ID NO:60; mutations of mFAP2.3 and mFAP2.4 combined (protein)
chain: B7 chain with M28W, V40I, V58A, F94W
modifications: (1)..(1) optionally absent

Columns and labels:
[1] = previously reported value, cited from earlier work
[2] = Chromophore titration, fit to single binding site isotherm: DFHO; conditions: n=1 titration; ± SD of the fit; Table 3C
Method: (§1) Table 3A-C. Brightness and chromophore affinities of selected mFAP variants. Fluorescence brightness measurements at 10 μM (top table) and 100 nM (middle table) chromophore concentrations were normalized from 0 to 1 across all three chromophores (DFHBI, DFHBI-1T, and DFHO), and the normalized values for two protein concentrations tested for each chromophore at each chromophore concentration were averaged and standard deviations of the average computed. Reported values are the normalized averages and standard deviations of the means for each chromophore concentration and each chromophore. Reported relative densitometry values are the relative densitometry values normalized from 0 to 1 and represent how well each design expresses relative to one another in Lemo21(DE3) E. coli cultures. Thermodynamic dissociation constants (bottom table) are obtained by non-linear least squares fitting of chromophore titrations (n=1) to a single binding site isotherm, and values reported with the standard deviation of the fit. Where the obtained Kd values are below the protein concentration tested, the Kd and standard deviation of the fit are reported in parentheses. Values with “N/D” were not determined.

[3] = Photophysical characterization (absorbance, excitation, emission, extinction coefficient, quantum yield); type: physicochemical
[4] = Fluorescence activation / brightness with DFHBI; type: biochemical; conditions: for Fluorescence brightness, 100 nM DFHBI / Fluorescence brightness, 10 μM DFHBI: normalized 0 to 1 across all three chromophores, average ± SD of two protein concentrations; for Activation of DFHBI fluorescence: monomeric designs; for Increase in fluorescence of the phenolate form of DFHBI: pH 7.36, versus mFAP2.2
Method: (§2) Fluorescence binding assay. Protein-activated DFHBI fluorescence signals were measured in 96-well plate format (Corning 3650) on a Synergy neo2 plate reader (BioTek, Inc) with λex=450 nm or 460 nm and λem=500 nm or 510 nm. Binding reactions were performed at […] in PBS pH7.4 buffer. Protein concentrations were determined by 280 nm absorbance as described above. DFHBI (Lucerna, Inc) were resuspended in DMSO as instructed to make 100 mM stock and diluted in PBS to 0.5-10 μM. Approximate emission spectra were recorded for active designs from 490 to 600 nm.
as §1

[5] = test system: E. coli, yeast, and mammalian cells; assay: Confocal imaging of cells expressing mFAPs with DFHBI; type: cell-based; conditions: 20 μM DFHBI
Method: To determine whether the designed DFHBI-binding fluorescence-activating proteins function in living cells, we imaged mFAP1- and mFAP2-DFHBI complexes in E. coli, yeast, and mammalian cells by confocal microscopy. […] The quantum yield of mFAP1 and mFAP2 in complex with DFHBI is 2.0% and 2.1% respectively (Table 2).
Confocal image acquisition. Mammalian cell imaging of mFAP1 and mFAP2 was performed in NIH3T3 cells (Flp-In-3T3, Thermo Fisher Scientific, Inc). NIH3T3 cells were cultured in high-glucose DMEM, 4 mM L-glutamine, 10% fetal bovine serum (FBS, Life Technologies, Inc) at 37 degrees Celsius, 5% CO2. Cells were plated at 4×10^4 cells/mL in 35 mm glass-bottomed dishes (Matek, Inc) that were coated with poly-D-lysine. Cells were transfected 24 hours after plating with Lipofectamine™ 3000 (Thermo Fisher Scientific, Inc) at a ratio of 3 μL reagent:1 μL DNA, according to manufacturer's instructions, with […] plasmids of mFAPs or mFAP fusions (1.25 μg mCherry™ plasmid was added to the cytosolic constructs as a transfection control). Right before imaging, cell media was replaced with FluorBrite™ DMEM (Thermo Fisher Scientific, Inc) media supplemented with GlutaMax™ (Thermo Fisher Scientific, Inc) and 10% v/v FBS, and 20 μM DFHBI. […] A white light laser of 488 was used to excite the DFHBI and detected by a HyD detector, over a range of 495-550 nm. […]

[6] = Fluorescence brightness with DFHO; type: biochemical; conditions: normalized 0 to 1 across all three chromophores; average ± SD of two protein concentrations
Method: as §1

[7] = Chromophore titration, fit to single binding site isotherm: DFHBI; conditions: ± SD of the fit
Method: as §2, §1

[8] = Chromophore titration, fit to single binding site isotherm: DFHBI-1T; conditions: n=1 titration; ± SD of the fit; Table 3C
Method: as §1

[9] = Fluorescence brightness with DFHBI-1T; type: biochemical; conditions: normalized 0 to 1 across all three chromophores; average ± SD of two protein concentrations
Method: as §1

[10] = Circular dichroism, thermal and GuHCl denaturation; type: physicochemical; conditions: CD
Method: Circular dichroism (CD). Purified protein samples were prepared at 0.5 mg/ml in 20 mM Tris buffer (150 mM NaCl, pH8.0) or PBS buffer (25 mM phosphate, 150 mM NaCl, pH7.4). Wavelength scans from 195 nm to 260 nm were recorded at 25 degrees Celsius, 75 degrees Celsius, 95 degrees Celsius and cooling back to 25 degrees Celsius. Thermal denaturation was monitored at 220 nm or 226 nm from 25 degrees Celsius to 95 degrees Celsius. Near-UV wavelength scan from 240 nm to 320 nm and tryptophan fluorescence emission were recorded in the absence and presence of 5M guanidinium chloride (GuHCl). Chemical denaturation in GuHCl was monitored by both tryptophan fluorescence and near-UV CD signal at 285 nm. The concentration of the GuHCl stock solution was measured with a refractometer (Spectronic Instruments, Inc). Far-UV CD experiments were performed on an AVIV model 420 CD spectrometer (Aviv Biomedical, Inc). Near-UV CD and tryptophan fluorescence experiments were performed on a Jasco J-1500 CD spectrometer (Jasco, Inc). Protein concentrations were determined by 280 nm absorbance with a NanoDrop™spectrophotometer (ThermoScientific, Inc). Melting temperatures were estimated by smoothing the sparse data with a Savitsky-Golay filter of order 3 and approximating the smoothed data with a cubic spline to compute derivatives. Reported Tm values are the inflection points of the melting curves.

[11] = n=1 titration, Table 3C, read-out: DFHBI Kd
[12] = obtained Kd below the protein concentration tested, read-out: DFHBI Kd, fit value in parentheses

Row | Molecule | Kd [2] [µM] | Fluorescence brightness, 100 nM DFHBI [4] | Fluorescence brightness, 10 μM DFHBI [4] | Fluorescence brightness, 100 nM DFHO [6] | Fluorescence brightness, 10 μM DFHO [6] | Kd [7, 11] [µM] | Kd [8] [µM] | Fluorescence brightness, 100 nM DFHBI-1T [9] | Fluorescence brightness, 10 μM DFHBI-1T [9] | further results
1 | CC1=N/C(=C\c2cc(F)c(O)c(F)c2)C(=O)N1CC(F)(F)F [DFHBI-1T] |  |  |  |  |  |  |  |  |  | Extinction Coefficient ([1]; Table 4): 35,400^† M^−1 · cm^−1; λabs ([1]; Table 4): 422^† nm; λem ([1]; Table 4): 495^† nm; λex ([1]; Table 4): 426^† nm; Reported Quantum Yield [1]: 0.00098^†
2 | B1 | 7.8 ± 2.89 | 0.18 ± 0.0 | 0.13 ± 0.02 | 0.01 ± 0.0 | 0.0 ± 0.0 | < 0.5 | 10.8 ± 1 | 0.01 ± 0.0 | 0.01 ± 0.0 | Quantum yield in complex with DFHBI ([3]; absolute): 2.0%; In vivo fluorescence activation [5]: showed in vivo fluorescence activation; Kd [7, 12]: 0.496 µM
3 | B2 |  |  |  |  |  |  |  |  |  | Absorption peak with DFHBI bound [3]: 450 nm; Emission peak with DFHBI bound [3]: 510 nm; Activation of DFHBI fluorescence [4]: found to activate DFHBI fluorescence; Thermal stability [10]: undergo reversible thermal melting transitions
4 | B3 |  |  |  |  |  |  |  |  |  | Increase of fluorescence, second round of design ([4]; versus b11L5F.1): approximately 1.4 fold
5 | B4 |  |  |  |  |  |  |  |  |  | Absorption peak with DFHBI bound [3]: 450 nm; Emission peak with DFHBI bound [3]: 510 nm; Activation of DFHBI fluorescence [4]: found to activate DFHBI fluorescence; Thermal stability [10]: undergo reversible thermal melting transitions
6 | B5 |  |  |  |  |  |  |  |  |  | Fluorescence activity in comparison with b11 ([4]; 100 μM protein+10 μM DFHBI): 5.2 fold; Increase of fluorescence intensity ([4]; fifth turn changed to a five-residue turn, versus b11): fourfold
7 | B6 |  |  |  |  |  |  |  |  |  | Higher DFHBI fluorescence ([4]; substitutions at V103, V95, V83 of b11L5F): tenfold
8 | B7 | 10.4 ± 3.59 | 0.15 ± 0.0 | 0.2 ± 0.03 | 0.02 ± 0.0 | 0.01 ± 0.0 | < 0.5 | 1.58 ± 0.34 | 0.52 ± 0.02 | 0.67 ± 0.04 | Increase in fluorescence of the phenolate form of DFHBI [4]: ~1.1 fold; Kd [7, 12]: 0.146 µM
9 | B8 | 32.7 ± 14.2 | 0.69 ± 0.03 | 0.69 ± 0.06 | 0.01 ± 0.0 | 0.0 ± 0.0 | 1.31 ± 0.1 | 38.7 ± 5.71 | 0.01 ± 0.0 | 0.01 ± 0.0 | Increase in fluorescence of the phenolate form of DFHBI [4]: ~3.4 fold
10 | B9 | 34.2 ± 13.7 | 0.83 ± 0.02 | 0.8 ± 0.03 | 0.01 ± 0.0 | 0.0 ± 0.0 | 1.13 ± 0.09 | 52.5 ± 7.48 | 0.01 ± 0.0 | 0.01 ± 0.0 | 

Source: patent US20210047373A1, “BETA BARREL POLYPEPTIDES AND METHODS FOR THEIR USE” (UNIVERSITY OF WASHINGTON, priority 2018, published 2021)
